Measured values reported in publication PMC9684507.

Biological target: T1, glucocorticoid receptor (GR) ((MCF-7 breast cancer cells)) (UniProt P04150)
T1 sequence: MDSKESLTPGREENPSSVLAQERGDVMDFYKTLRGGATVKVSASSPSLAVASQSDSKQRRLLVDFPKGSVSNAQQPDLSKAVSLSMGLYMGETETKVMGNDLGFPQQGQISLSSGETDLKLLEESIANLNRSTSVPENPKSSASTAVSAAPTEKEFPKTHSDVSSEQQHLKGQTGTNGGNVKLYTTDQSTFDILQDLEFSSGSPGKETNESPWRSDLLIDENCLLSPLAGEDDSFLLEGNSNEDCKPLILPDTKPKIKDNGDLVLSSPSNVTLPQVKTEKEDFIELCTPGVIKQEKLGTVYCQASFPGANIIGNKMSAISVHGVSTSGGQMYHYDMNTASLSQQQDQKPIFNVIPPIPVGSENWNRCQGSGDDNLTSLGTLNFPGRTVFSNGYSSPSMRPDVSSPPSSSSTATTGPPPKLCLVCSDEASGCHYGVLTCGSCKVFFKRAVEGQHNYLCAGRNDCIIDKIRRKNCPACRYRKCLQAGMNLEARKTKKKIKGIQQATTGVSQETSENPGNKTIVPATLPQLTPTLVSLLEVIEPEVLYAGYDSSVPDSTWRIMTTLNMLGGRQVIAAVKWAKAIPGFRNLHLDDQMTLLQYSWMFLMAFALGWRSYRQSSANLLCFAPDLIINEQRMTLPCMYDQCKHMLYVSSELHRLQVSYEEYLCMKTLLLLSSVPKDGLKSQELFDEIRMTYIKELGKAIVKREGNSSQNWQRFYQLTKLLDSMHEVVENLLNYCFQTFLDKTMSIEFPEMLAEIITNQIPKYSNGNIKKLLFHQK
Experiment: EMSA supershift
Settings: LightShift Chemiluminescent EMSA Kit (Thermo), 6% polyacrylamide gel, antibody 1:250, additional 30 min, buffer, salt, pH and temperature not stated

| Sequence | binding signal (fraction of G-probe band intensity) (dexamethasone-treated MCF-7 nuclear extract, anti-GR antibody, reference) | binding signal (scale: fraction of G-probe supershift band intensity) |
| --- | --- | --- |
| TTCTGATCTTTGTTTTGCTTTTCTTGGCTTCTG (double strand) [rs28714259 G (major) probe] | 1 |  |
| TTCTGATCTTTGTTTTACTTTTCTTGGCTTCTG (double strand) [rs28714259 A (risk) probe] |  | < 0.4 |
